# Laboratory results as given in IntAct's records for PubMed 27857056.
# B1: UDP-glucuronosyltransferase 1A9 (Homo sapiens), O60656-1 (parent)
# chain: MACTGWTSPLPLCVCLLLTCGFAEAGKLLVVPMDGSHWFTMRSVVEKLILRGHEVVVVMPEVSWQLGRSLNCTVKTYSTSYTLEDLDREFKAFAHAQWKAQVRSIYSLLMGSYNDIFDLFFSNCRSLFKDKKLVEYLKESSFDAVFLDPFDNCGLIVAKYFSLPSVVFARGILCHYLEEGAQCPAPLSYVPRILLGFSDAMTFKERVRNHIMHLEEHLLCHRFFKNALEIASEILQTPVTEYDLYSHTSIWLLRTDFVLDYPKPVMPNMIFIGGINCHQGKPLPMEFEAYINASGEHGIVVFSLGSMVSEIPEKKAMAIADALGKIPQTVLWRYTGTRPSNLANNTILVKWLPQNDLLGHPMTRAFITHAGSHGVYESICNGVPMVMMPLFGDQMDNAKRMETKGAGVTLNVLEMTSEDLENALKAVINDKSYKENIMRLSSLHKDRPVEPLDLAVFWVEFVMRHKGAPHLRPAAHDLTWYQYHSLDVIGFLLAVVLTVAFITFKCCAYGYRKCLGKKGRVKKAHKSKTH
# partner: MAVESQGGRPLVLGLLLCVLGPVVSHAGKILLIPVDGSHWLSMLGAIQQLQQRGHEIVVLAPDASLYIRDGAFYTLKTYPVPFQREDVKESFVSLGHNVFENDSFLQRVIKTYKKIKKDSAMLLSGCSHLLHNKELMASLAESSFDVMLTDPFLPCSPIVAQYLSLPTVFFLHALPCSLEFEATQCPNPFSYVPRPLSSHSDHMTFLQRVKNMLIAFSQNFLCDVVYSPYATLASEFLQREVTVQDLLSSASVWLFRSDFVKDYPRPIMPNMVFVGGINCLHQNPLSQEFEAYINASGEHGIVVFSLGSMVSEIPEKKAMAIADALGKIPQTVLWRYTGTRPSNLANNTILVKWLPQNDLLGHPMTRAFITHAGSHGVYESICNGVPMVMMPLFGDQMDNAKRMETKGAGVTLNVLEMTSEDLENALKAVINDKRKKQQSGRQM
# B2: UDP-glucuronosyltransferase 2B7 (Homo sapiens), P16662 (parent)
# chain: MSVKWTSVILLIQLSFCFSSGNCGKVLVWAAEYSHWMNIKTILDELIQRGHEVTVLASSASILFDPNNSSALKIEIYPTSLTKTELENFIMQQIKRWSDLPKDTFWLYFSQVQEIMSIFGDITRKFCKDVVSNKKFMKKVQESRFDVIFADAIFPCSELLAELFNIPFVYSLSFSPGYTFEKHSGGFIFPPSYVPVVMSELTDQMTFMERVKNMIYVLYFDFWFEIFDMKKWDQFYSEVLGRPTTLSETMGKADVWLIRNSWNFQFPYPLLPNVDFVGGLHCKPAKPLPKEMEDFVQSSGENGVVVFSLGSMVSNMTEERANVIASALAQIPQKVLWRFDGNKPDTLGLNTRLYKWIPQNDLLGHPKTRAFITHGGANGIYEAIYHGIPMVGIPLFADQPDNIAHMKARGAAVRVDFNTMSSTDLLNALKRVINDPSYKENVMKLSRIQHDQPVKPLDRAVFWIEFVMRHKGAKHLRVAAHDLTWFQYHSLDVIGFLLVCVATVIFIVTKCCLFCFWKFARKAKKGKND
# partner: B1 partner
# Variants of: B1
# Conditions: with UGT1A1, P22309-2
row,Variant,effect of a mutation on the interaction
1,D256N,with no effect
2,M33T,with no effect

# Variants of: B2
# Conditions: with UGT1A1, P22309-2
row,Variant,effect of a mutation on the interaction
1,D398N,disrupting interaction strength
2,A71S,with no effect
